B1: TEKT4 (parent)
chain: LREKLLEAEQSLRNLEDIHMSLEK
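Note: lentivirally expressed fusions sorted by FACS into six bins by GFP to DsRed ratio, PSI derived from sequencing read proportions per bin multiplied by bin number.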

This series covers variants of B1. Description: protein stability index of a GFP-peptide fusion (GPS, HEK-293T) (PSI 1-6); higher = more stable. To be noted: c terminus: a fixed tail appended.
Regarding LREKLLEAEQVLRNLEDIHMSLEK [S11V], the protein stability index was found to be 1.47.

On to LREKLLEAEQLLRNLEDIHMSLEK [S11L], for which the protein stability index was found to be 1.83.

As for LREKLLEAEQPLRNLEDIHMSLEK [S11P], the protein stability index was 4.21.

LREKLLEAEQGLRNLEDIHMSLEK [S11G]: the protein stability index was 2.28.

In the case of LREKLLEAEQWLRNLEDIHMSLEK [S11W], the protein stability index is 1.48.

For the variant LREKLLEAEQILRNLEDIHMSLEK [S11I], the protein stability index was determined as 4.94.

As to LREKLLEAEQMLRNLEDIHMSLEK [S11M], the protein stability index was determined as 1.05.

Take LREKLLEAEQKLRNLEDIHMSLEK [S11K]: the protein stability index is 2.08.

With LREKLLEAEQALRNLEDIHMSLEK [S11A], the protein stability index came out at 1.5.

As for LREKLLEAEQYLRNLEDIHMSLEK [S11Y], the protein stability index is 1.83.

With LREKLLEAEQFLRNLEDIHMSLEK [S11F], the protein stability index amounted to 1.96.

Take LREKLLEAEQDLRNLEDIHMSLEK [S11D]: the protein stability index worked out at 2.57.

On to LREKLLEAEQQLRNLEDIHMSLEK [S11Q], for which the protein stability index came to 2.33.

Consider LREKLLEAEQTLRNLEDIHMSLEK [S11T], for which the protein stability index came to 2.55.

On to LREKLLEAEQHLRNLEDIHMSLEK [S11H], for which the protein stability index was found to be 2.75.

LREKLLEAEQSKRNLEDIHMSLEK [L12K]: the protein stability index worked out at 3.98.

For LREKLLEAEQSYRNLEDIHMSLEK [L12Y], the protein stability index turned out to be 2.03.

On to LREKLLEAEQSWRNLEDIHMSLEK [L12W], for which the protein stability index came out at 1.79.

On to LREKLLEAEQSVRNLEDIHMSLEK [L12V], for which the protein stability index amounted to 3.3.

For the variant LREKLLEAEQSGRNLEDIHMSLEK [L12G], the protein stability index is 3.89.

Regarding LREKLLEAEQSHRNLEDIHMSLEK [L12H], the protein stability index was found to be 4.44.

In the case of LREKLLEAEQSARNLEDIHMSLEK [L12A], the protein stability index amounted to 3.84.

Turning to LREKLLEAEQSDRNLEDIHMSLEK [L12D], the protein stability index was 5.05.

As for LREKLLEAEQSPRNLEDIHMSLEK [L12P], the protein stability index is 4.6.

Regarding LREKLLEAEQSMRNLEDIHMSLEK [L12M], the protein stability index came to 2.97.

For LREKLLEAEQSSRNLEDIHMSLEK [L12S], the protein stability index stood at 3.62.

As for LREKLLEAEQSERNLEDIHMSLEK [L12E], the protein stability index is 4.97.

For the variant LREKLLEAEQSRRNLEDIHMSLEK [L12R], the protein stability index came out at 3.02.

Consider LREKLLEAEQSTRNLEDIHMSLEK [L12T], for which the protein stability index was found to be 3.17.

Take LREKLLEAEQSFRNLEDIHMSLEK [L12F]: the protein stability index was determined as 1.69.

For LREKLLEAEQSNRNLEDIHMSLEK [L12N], the protein stability index worked out at 4.57.

On to LREKLLEAEQSLRSLEDIHMSLEK [N14S], for which the protein stability index is 2.07.

Regarding LREKLLEAEQSLRELEDIHMSLEK [N14E], the protein stability index was determined as 3.99.

With LREKLLEAEQSLRCLEDIHMSLEK [N14C], the protein stability index came out at 2.26.

On to LREKLLEAEQSLRGLEDIHMSLEK [N14G], for which the protein stability index amounted to 2.71.

Take LREKLLEAEQSLRVLEDIHMSLEK [N14V]: the protein stability index stood at 2.56.

For the variant LREKLLEAEQSLRWLEDIHMSLEK [N14W], the protein stability index came to 1.35.

Take LREKLLEAEQSLRHLEDIHMSLEK [N14H]: the protein stability index came to 1.77.

With LREKLLEAEQSLRPLEDIHMSLEK [N14P], the protein stability index amounted to 2.04.

Turning to LREKLLEAEQSLRKLEDIHMSLEK [N14K], the protein stability index was found to be 2.27.

As for LREKLLEAEQSLRLLEDIHMSLEK [N14L], the protein stability index was determined as 1.64.

With LREKLLEAEQSLRRLEDIHMSLEK [N14R], the protein stability index stood at 2.78.

For the variant LREKLLEAEQSLRDLEDIHMSLEK [N14D], the protein stability index stood at 2.27.

Turning to LREKLLEAEQSLSNLEDIHMSLEK [R13S], the protein stability index stood at 1.89.

As for LREKLLEAEQSLINLEDIHMSLEK [R13I], the protein stability index came out at 2.6.

For the variant LREKLLEAEQSLTNLEDIHMSLEK [R13T], the protein stability index worked out at 2.61.

For LREKLLEAEQSLGNLEDIHMSLEK [R13G], the protein stability index came to 2.22.

Consider LREKLLEAEQSLQNLEDIHMSLEK [R13Q], for which the protein stability index came out at 3.43.

Consider LREKLLEAEQSLPNLEDIHMSLEK [R13P], for which the protein stability index was found to be 2.45.

Turning to LREKLLEAEQSLMNLEDIHMSLEK [R13M], the protein stability index is 2.52.

Consider LREKLLEAEQSLVNLEDIHMSLEK [R13V], for which the protein stability index came to 2.96.

Regarding LREKLLEAEQSLLNLEDIHMSLEK [R13L], the protein stability index came to 2.18.

Regarding LREKLLEAEQSLWNLEDIHMSLEK [R13W], the protein stability index came to 2.09.

On to LREKLLEAEQSLFNLEDIHMSLEK [R13F], for which the protein stability index turned out to be 2.11.

On to LREKLLEAEQSLDNLEDIHMSLEK [R13D], for which the protein stability index came to 3.69.

Take LREKLLEAEQSLKNLEDIHMSLEK [R13K]: the protein stability index worked out at 2.22.

With LREKLLEAEQSLCNLEDIHMSLEK [R13C], the protein stability index is 2.21.

LREKLLEAEQSLYNLEDIHMSLEK [R13Y]: the protein stability index worked out at 2.11.

As for LREKLLEAEQSLHNLEDIHMSLEK [R13H], the protein stability index came to 3.38.

For LREKLLEAEQSLRNAEDIHMSLEK [L15A], the protein stability index was found to be 3.2.

LREKLLEAEGSLRNLEDIHMSLEK [Q10G]: the protein stability index was 2.71.

For LREKLLEAEDSLRNLEDIHMSLEK [Q10D], the protein stability index worked out at 1.92.

In the case of LREKLLEAEHSLRNLEDIHMSLEK [Q10H], the protein stability index was 2.23.

Take LREKLLEAEYSLRNLEDIHMSLEK [Q10Y]: the protein stability index is 1.85.

LREKLLEAECSLRNLEDIHMSLEK [Q10C]: the protein stability index worked out at 3.01.

Consider LREKLLEAEFSLRNLEDIHMSLEK [Q10F], for which the protein stability index was found to be 2.89.

As to LREKLLEAELSLRNLEDIHMSLEK [Q10L], the protein stability index turned out to be 3.22.

For the variant LREKLLEAEKSLRNLEDIHMSLEK [Q10K], the protein stability index turned out to be 2.37.

For LREKLLEAESSLRNLEDIHMSLEK [Q10S], the protein stability index came out at 2.79.

For LREKLLEAEWSLRNLEDIHMSLEK [Q10W], the protein stability index worked out at 1.98.

For LREKLLEAERSLRNLEDIHMSLEK [Q10R], the protein stability index was found to be 2.69.

Turning to LREKLLEAEVSLRNLEDIHMSLEK [Q10V], the protein stability index was 2.08.

Take LREKLLEAENSLRNLEDIHMSLEK [Q10N]: the protein stability index was 2.76.

LREKLLEAEASLRNLEDIHMSLEK [Q10A]: the protein stability index amounted to 3.49.

Consider LREKLLEAEPSLRNLEDIHMSLEK [Q10P], for which the protein stability index amounted to 4.65.

With LREKLLEAETSLRNLEDIHMSLEK [Q10T], the protein stability index came out at 2.77.

Take LREKLLEAEISLRNLEDIHMSLEK [Q10I]: the protein stability index is 1.34.

For LREKLLEAKQSLRNLEDIHMSLEK [E9K], the protein stability index is 3.17.

For LREKLLEAFQSLRNLEDIHMSLEK [E9F], the protein stability index is 1.37.

Take LREKLLEAIQSLRNLEDIHMSLEK [E9I]: the protein stability index amounted to 1.75.

On to LREKLLEAQQSLRNLEDIHMSLEK [E9Q], for which the protein stability index came to 1.98.

With LREKLLEAYQSLRNLEDIHMSLEK [E9Y], the protein stability index worked out at 2.06.

LREKLLEAPQSLRNLEDIHMSLEK [E9P]: the protein stability index worked out at 3.52.

As to LREKLLEAGQSLRNLEDIHMSLEK [E9G], the protein stability index turned out to be 2.89.

In the case of LREKLLEATQSLRNLEDIHMSLEK [E9T], the protein stability index worked out at 2.44.

Turning to LREKLLEADQSLRNLEDIHMSLEK [E9D], the protein stability index came to 3.4.

Take LREKLLEAHQSLRNLEDIHMSLEK [E9H]: the protein stability index stood at 2.58.

As for LREKLLEAVQSLRNLEDIHMSLEK [E9V], the protein stability index stood at 2.05.

As for LREKLLEARQSLRNLEDIHMSLEK [E9R], the protein stability index stood at 3.25.

Take LREKLLEASQSLRNLEDIHMSLEK [E9S]: the protein stability index worked out at 2.61.

For LREKLLEANQSLRNLEDIHMSLEK [E9N], the protein stability index is 3.15.

For the variant LREKLLEACQSLRNLEDIHMSLEK [E9C], the protein stability index was determined as 1.85.

For the variant LREKLLEALQSLRNLEDIHMSLEK [E9L], the protein stability index came to 2.77.

Consider LREKLLEAWQSLRNLEDIHMSLEK [E9W], for which the protein stability index came out at 2.06.
